Reference: article PMC11428563, “Systematic design and evaluation of aptamers for VEGF and PlGF biomarkers of Preeclampsia”

Legend:
Conditions in all cases: protein: commercial; tags: His; chain copies: 2
[1] = biological target: T1, PlGF (Human PlGF / PGF (19-149) Protein, His Tag, Acrobiosystems PGF-H52H5) (human, UniProt P49763-2 19-149); assay: BLI; kon 3.169e3 1/Ms; koff 2.150e-1 1/s; BLI (Octet R4, anti-penta-His HIS1K sensors): protein loaded in phosphate buffer pH 7.4 (PlGF 2.5 ug/mL, VEGF 10 ug/mL); aptamers 0-20 uM in 1X Sartorius Kinetics Buffer; 1:1 global fit, triplicate; temperature not stated
T1 sequence: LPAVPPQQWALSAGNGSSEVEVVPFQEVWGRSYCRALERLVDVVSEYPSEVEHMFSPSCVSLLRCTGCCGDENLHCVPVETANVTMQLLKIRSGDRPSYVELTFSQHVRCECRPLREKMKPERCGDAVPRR

[2] = biological target: T1, PlGF (Human PlGF / PGF (19-149) …); assay: BLI; kon 1.772e4 1/Ms; koff 2.049e-1 1/s; BLI (Octet R4, anti-penta-His HIS1K sensors): protein loaded in phosphate buffer pH 7.4 (PlGF 2.5 ug/mL, VEGF 10 ug/mL); aptamers 0-20 uM in 1X Sartorius Kinetics Buffer; 1:1 global fit, triplicate; temperature not stated
[3] = biological target: T1, PlGF (Human PlGF / PGF (19-149) …); assay: BLI; kon 2.746e3 1/Ms; koff 5.548e-7 1/s; BLI (Octet R4, anti-penta-His HIS1K sensors): protein loaded in phosphate buffer pH 7.4 (PlGF 2.5 ug/mL, VEGF 10 ug/mL); aptamers 0-20 uM in 1X Sartorius Kinetics Buffer; 1:1 global fit, triplicate; temperature not stated

Binder: CGAAGAGACGCAGAGAAGC (ssRNA) [PlGF-Apt4]
- Kd [1]: 49.7 µM

Binder: ACAGGCACA (ssRNA) [PlGF-Apt2]
- Kd [2]: 17.7 µM

Binder: AGAGAACGCAAGAGA (ssRNA) [PlGF-Apt3]
- Kd [3]: 0.000298 µM
